The record followed here is US20040219554, “Dna binding protein” (published 2004).

Series [1] has as its target T1, DUE-B (Homo sapiens, UniProt Q8TEA8 SEQ:1-209).
T1 sequence: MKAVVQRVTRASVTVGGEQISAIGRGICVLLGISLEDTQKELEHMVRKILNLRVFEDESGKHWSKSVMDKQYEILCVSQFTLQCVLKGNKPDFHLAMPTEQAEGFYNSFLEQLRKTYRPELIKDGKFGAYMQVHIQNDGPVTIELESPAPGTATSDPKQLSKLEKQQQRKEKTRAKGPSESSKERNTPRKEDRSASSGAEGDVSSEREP
The series is described as follows: EMSA; strongly retarded complex without poly dI-dC; 30 C 30 min; reduced by poly dI-dC. The conditions noted are these: tags: 6His, baculovirus/Sf9 expressed, Ni-NTA; label: 32P (alpha-32P-dCTP by PCR). Here is the method:
An electrophoretic mobility shift assay (EMSA) was used to test whether the baculovirus expressed DUE-B protein could bind to DNA in vitro. When added to a radiolabeled c-myc DUE probe in the absence of nonspecific competitor (poly dI-dC), DUE-B produced a strongly retarded protein-DNA complex band (FIG. 14, lanes 1-4). […] When HeLa cell cytoplasmic extract was added to the c-myc DUE probe in the absence of poly dI-dC an intense band was observed that was not affected by the addition of DUE-B (lanes 13-16). With the addition of the nonspecific competitor poly dI-dC, however, a novel band appeared that was dependent on the addition of DUE-B (asterisks, lanes 17-24). […] Similar to the results obtained when cytosol was added to the c-myc DUE probe, when nuclear extract from HeLa cells was added to the c-myc DUE probe in the absence of poly dI-dC an intense band was observed that was not affected by the addition of DUE-B (lanes 25-28). In the presence of competitor for nonspecific binding, however, a novel band appeared that was dependent on the addition of DUE-B (brackets, lanes 32 and 36). […] In FIG. 14, a 123 bp fragment of the c-myc replication origin containing the DUE/ARS region was labeled with alpha-³²P-dCTP by PCR. 25 fmol were mixed with recombinant DUE-B purified by Ni-NTA affinity chromatography from SF9 insect cells. […]
In general terms: A gel shift assay detects complexes by their altered migration in electrophoresis.

For series [2], the target named is T1, DUE-B. In words: FP; saturable polarization; 2 nM oligo; 100 mM Tris pH 7.5 (printed mN), 800 mM NaCl, 10 mM EDTA; reversed by poly dI-dC; 16-epiestriol (E2850) stimulates. The conditions noted are these: tags: N-terminal 6His and V5, baculovirus expressed; label: FITC at 3' end of both strands via C6 spacer. Here is the method:
A mastermix is prepared consisting of 1× reaction buffer, 2 nM labeled oligo and 0.125 or 0.250 ug DUE-B per 100 ul of mastermix. Compounds (in this case steroids) are added to the bottom of a 96 well plate. 100 ul of mastermix is added to each well and allowed to equilibrate for 30 sec. Fluorescence polarization is then measured.
In FIG. 23A, the effect of increasing concentrations of DUE-B on the polarization of dsDNA was assessed. As expected, polarization of the dsDNA becomes saturated as the DUE-B protein concentration increases. Note that at 0.125 and 0.250 μg of DUE-B a reasonable shift in polarization of dsDNA is seen. Using these set conditions (0.250 ug DUE-B), the effect of adding a non-specific DNA inhibitor (pdldC) to the reaction (FIG. 23B) was tested. […] It is observed that the polarization was stable for at least 2 hours, making this assay very feasible for high throughput screening.

B1: c-myc DUE/ARS 123 bp probe (dsDNA)
DNA 1: GAAGGAATTCATGAGAAGAATGTTTTTTGTTTTTCATGCCGTGGAATAACACAAAATAAAAAATCCCGAGGGAATATACATTATATATTAAATATAGATCATTTCAGGGAGCTCGAGAAACAA
DNA 2: TTGTTTCTCGAGCTCCCTGAAATGATCTATATTTAATATATAATGTATATTCCCTCGGGATTTTTTATTTTGTGTTATTCCACGGCATGAAAAACAAAAAACATTCTTCTCATGAATTCCTTC
With B1, the binding result in series [1] is reported as “binds”.

B2: DUE 30-mer probe (dsDNA)
DNA 1: GGAATATACATTATATATTAAATATAGATC
DNA 2: GATCTATATTTAATATATAATGTATATTCC
Turning to B2, the binding result in series [2] is on record as “binds”.
